{"source": "paper PMC5118228", "about": "(EJNMMI Research, 2016)", "key": {"[1]": {"test_system": "tumor and normal organs of mice", "test": "Radiation dosimetry (MIRD schema, Olinda/EXM spherical S-factors)", "type": "in vivo", "settings": "tumor-bearing mice, calculated", "procedure": "Saturation of receptor-specific tumor uptake was investigated by determining the kinetics of the tumor uptake with increasing injected mass of peptide. The time-activity curves for the tumor and normal organs were fitted by single-exponential functions using Prism-5 (GraphPad). Goodness of fit was analyzed with the Pearson correlation coefficient R ^2 > 0.8. Both F test and the Aikake information criterion were used to decide on the complexity of the curves.\nDosimetry was performed according to the MIRD schema by using the spherical nodes S-factors from the Olinda/EXM software. S-factors were interpolated from the actual weight of the organs and tissue. All organs and tissue were assumed to be spherical with a density of […]. Mean radiation absorbed doses were obtained as a function-injected mass of peptide, assuming a homogeneous distribution in the tumor and organs. […] Owing to the short path length of α-particles, only the self-dose within each organ was included. The threshold for lethality was determined with renal absorbed dose and injected activity as indicators. Logistic regression analysis was used to determine the LD50 for presumed renal toxicity-related death."}, "[2]": {"test": "in vivo", "set-up": "species or system mice", "settings": "male, athymic nu/nu, mouse, iv, 0.3 nmol, total radioactivity", "procedure": "Mice were euthanized at 10 and 60 min p.i. […] Blood, organs, and femur-containing femur marrow were collected and counted as described previously. The uptake was expressed as percentage of injected activity per gram of tissue (%IA/g)."}}, "data": [{"smiles": "C[C@@H](O)[C@H](NC(=O)[C@@H]1CSSC[C@H](NC(=O)[C@@H](Cc2ccccc2)NC(=O)CN2CCN(CC(=O)O)CCN(CC(=O)O)CCN(CC(=O)O)CC2)C(=O)N[C@@H](Cc2ccc(O)cc2)C(=O)N[C@H](Cc2c[nH]c3ccccc23)C(=O)N[C@@H](CCCCN)C(=O)N[C@@H]([C@@H](C)O)C(=O)N1)C(=O)O", "note": "[^213Bi-DOTATATE, metal not drawn]", "values": [{"measurement": "Radiation absorbed dose per administered activity, Tumor, ^209Pb β", "setting": "[1]; with L-lysine (35 mg)", "value": "1.41E-02", "unit": "Gy/MBq"}, {"measurement": "Radiation absorbed dose per administered activity, Tumor, ^209Tl β + γ", "setting": "[1]; with L-lysine (35 mg)", "value": "8.60E-04", "unit": "Gy/MBq"}, {"measurement": "Radiation absorbed dose per administered activity, Tumor, ^213Bi α", "setting": "[1]; with L-lysine (35 mg)", "value": "9.20E-03", "unit": "Gy/MBq"}, {"measurement": "Radiation absorbed dose per administered activity, Tumor, ^213Bi β", "setting": "[1]; with L-lysine (35 mg)", "value": "2.87E-02", "unit": "Gy/MBq"}, {"measurement": "Radiation absorbed dose per administered activity, Tumor, ^213Po α", "setting": "[1]; with L-lysine (35 mg)", "value": "6.05E-01", "unit": "Gy/MBq"}, {"measurement": "Radiation absorbed dose per administered activity, Adrenals, Total α", "setting": "[1]; without L-lysine", "value": "3.60E-02", "unit": "Gy/MBq"}, {"measurement": "Radiation absorbed dose per administered activity, Adrenals, Total β", "setting": "[1]; without L-lysine", "value": "2.00E-03", "unit": "Gy/MBq"}, {"measurement": "Radiation absorbed dose per administered activity, Adrenals, ^209Pb β", "setting": "[1]; without L-lysine", "value": "2.00E-04", "unit": "Gy/MBq"}, {"measurement": "Radiation absorbed dose per administered activity, Adrenals, ^209Tl β + γ", "setting": "[1]; without L-lysine", "value": "2.00E-05", "unit": "Gy/MBq"}, {"measurement": "Radiation absorbed dose per administered activity, Adrenals, ^213Bi α", "setting": "[1]; without L-lysine", "value": "5.00E-04", "unit": "Gy/MBq"}, {"measurement": "Radiation absorbed dose per administered activity, Adrenals, ^213Bi β", "setting": "[1]; without L-lysine", "value": "1.50E-03", "unit": "Gy/MBq"}, {"measurement": "Radiation absorbed dose per administered activity, Adrenals, ^213Po α", "setting": "[1]; without L-lysine", "value": "3.56E-02", "unit": "Gy/MBq"}, {"measurement": "Radiation absorbed dose per administered activity, Blood, Total α", "setting": "[1]; without L-lysine", "value": "9.00E-02", "unit": "Gy/MBq"}, {"measurement": "Radiation absorbed dose per administered activity, Blood, Total β", "setting": "[1]; without L-lysine", "value": "5.00E-03", "unit": "Gy/MBq"}, {"measurement": "Radiation absorbed dose per administered activity, Blood, ^209Pb β", "setting": "[1]; without L-lysine", "value": "1.60E-04", "unit": "Gy/MBq"}, {"measurement": "Radiation absorbed dose per administered activity, Blood, ^209Tl β + γ", "setting": "[1]; without L-lysine", "value": "1.20E-04", "unit": "Gy/MBq"}, {"measurement": "Radiation absorbed dose per administered activity, Blood, ^213Bi α", "setting": "[1]; without L-lysine", "value": "1.30E-03", "unit": "Gy/MBq"}, {"measurement": "Radiation absorbed dose per administered activity, Blood, ^213Bi β", "setting": "[1]; without L-lysine", "value": "4.30E-03", "unit": "Gy/MBq"}, {"measurement": "Radiation absorbed dose per administered activity, Blood, ^213Po α", "setting": "[1]; without L-lysine", "value": "8.80E-02", "unit": "Gy/MBq"}, {"measurement": "Radiation absorbed dose per administered activity, Femur, Total α", "setting": "[1]; without L-lysine", "value": "3.20E-02", "unit": "Gy/MBq"}, {"measurement": "Radiation absorbed dose per administered activity, Femur, Total β", "setting": "[1]; without L-lysine", "value": "1.00E-03", "unit": "Gy/MBq"}, {"measurement": "Radiation absorbed dose per administered activity, Femur, ^209Pb β", "setting": "[1]; without L-lysine", "value": "1.00E-04", "unit": "Gy/MBq"}, {"measurement": "Radiation absorbed dose per administered activity, Femur, ^209Tl β + γ", "setting": "[1]; without L-lysine", "value": "3.00E-05", "unit": "Gy/MBq"}, {"measurement": "Radiation absorbed dose per administered activity, Femur, ^213Bi α", "setting": "[1]; without L-lysine", "value": "5.00E-04", "unit": "Gy/MBq"}, {"measurement": "Radiation absorbed dose per administered activity, Femur, ^213Bi β", "setting": "[1]; without L-lysine", "value": "1.30E-03", "unit": "Gy/MBq"}, {"measurement": "Radiation absorbed dose per administered activity, Femur, ^213Po α", "setting": "[1]; without L-lysine", "value": "3.16E-02", "unit": "Gy/MBq"}, {"measurement": "Radiation absorbed dose per administered activity, Kidney, Total α", "setting": "[1]; without L-lysine", "value": "1.07E+00", "unit": "Gy/MBq"}, {"measurement": "Radiation absorbed dose per administered activity, Kidney, Total β", "setting": "[1]; without L-lysine", "value": "5.50E-02", "unit": "Gy/MBq"}, {"measurement": "Radiation absorbed dose per administered activity, Kidney, ^209Pb β", "setting": "[1]; without L-lysine", "value": "6.20E-03", "unit": "Gy/MBq"}, {"measurement": "Radiation absorbed dose per administered activity, Kidney, ^209Tl β + γ", "setting": "[1]; without L-lysine", "value": "1.30E-03", "unit": "Gy/MBq"}, {"measurement": "Radiation absorbed dose per administered activity, Kidney, ^213Bi α", "setting": "[1]; without L-lysine", "value": "1.61E-02", "unit": "Gy/MBq"}, {"measurement": "Radiation absorbed dose per administered activity, Kidney, ^213Bi β", "setting": "[1]; without L-lysine", "value": "4.71E-02", "unit": "Gy/MBq"}, {"measurement": "Radiation absorbed dose per administered activity, Pancreas, Total α", "setting": "[1]; without L-lysine", "value": "1.34E-01", "unit": "Gy/MBq"}, {"measurement": "Radiation absorbed dose per administered activity, Pancreas, Total β", "setting": "[1]; without L-lysine", "value": "5.00E-03", "unit": "Gy/MBq"}, {"measurement": "Radiation absorbed dose per administered activity, Pancreas, ^209Pb β", "setting": "[1]; without L-lysine", "value": "7.00E-04", "unit": "Gy/MBq"}, {"measurement": "Radiation absorbed dose per administered activity, Pancreas, ^209Tl β + γ", "setting": "[1]; without L-lysine", "value": "1.00E-04", "unit": "Gy/MBq"}, {"measurement": "Radiation absorbed dose per administered activity, Pancreas, ^213Bi α", "setting": "[1]; without L-lysine", "value": "2.00E-03", "unit": "Gy/MBq"}, {"measurement": "Radiation absorbed dose per administered activity, Pancreas, ^213Bi β", "setting": "[1]; without L-lysine", "value": "4.50E-03", "unit": "Gy/MBq"}, {"measurement": "Radiation absorbed dose per administered activity, Pancreas, ^213Po α", "setting": "[1]; without L-lysine", "value": "1.32E-01", "unit": "Gy/MBq"}, {"measurement": "Radiation absorbed dose per administered activity, Stomach, Total α", "setting": "[1]; without L-lysine", "value": "9.00E-02", "unit": "Gy/MBq"}, {"measurement": "Radiation absorbed dose per administered activity, Stomach, Total β", "setting": "[1]; without L-lysine", "value": "5.00E-03", "unit": "Gy/MBq"}, {"measurement": "Radiation absorbed dose per administered activity, Stomach, ^209Pb β", "setting": "[1]; without L-lysine", "value": "5.90E-04", "unit": "Gy/MBq"}, {"measurement": "Radiation absorbed dose per administered activity, Stomach, ^209Tl β + γ", "setting": "[1]; without L-lysine", "value": "1.10E-04", "unit": "Gy/MBq"}, {"measurement": "Radiation absorbed dose per administered activity, Stomach, ^213Bi α", "setting": "[1]; without L-lysine", "value": "1.30E-03", "unit": "Gy/MBq"}, {"measurement": "Radiation absorbed dose per administered activity, Stomach, ^213Bi β", "setting": "[1]; without L-lysine", "value": "3.90E-03", "unit": "Gy/MBq"}, {"measurement": "Radiation absorbed dose per administered activity, Stomach, ^213Po α", "setting": "[1]; without L-lysine", "value": "8.84E-02", "unit": "Gy/MBq"}, {"measurement": "Radiation absorbed dose per administered activity, Tumor, Total α", "setting": "[1]; without L-lysine", "value": "6.61E-01", "unit": "Gy/MBq"}, {"measurement": "Radiation absorbed dose per administered activity, Tumor, Total β", "setting": "[1]; without L-lysine", "value": "4.80E-02", "unit": "Gy/MBq"}, {"measurement": "Radiation absorbed dose per administered activity, Tumor, ^209Pb β", "setting": "[1]; without L-lysine", "value": "1.58E-02", "unit": "Gy/MBq"}, {"measurement": "Radiation absorbed dose per administered activity, Tumor, ^209Tl β + γ", "setting": "[1]; without L-lysine", "value": "9.60E-04", "unit": "Gy/MBq"}, {"measurement": "Radiation absorbed dose per administered activity, Tumor, ^213Bi α", "setting": "[1]; without L-lysine", "value": "9.90E-03", "unit": "Gy/MBq"}, {"measurement": "Radiation absorbed dose per administered activity, Tumor, ^213Bi β", "setting": "[1]; without L-lysine", "value": "3.14E-02", "unit": "Gy/MBq"}, {"measurement": "Radiation absorbed dose per administered activity, Tumor, ^213Po α", "setting": "[1]; without L-lysine", "value": "6.51E-01", "unit": "Gy/MBq"}, {"measurement": "tissue uptake at 10 min", "setting": "[2]; renal uptake", "value": "30.8 ± 5.8", "unit": "%ID/g"}, {"measurement": "tissue uptake at 1 h", "setting": "[2]; renal uptake", "value": "18.4 ± 1.8", "unit": "%ID/g"}, {"measurement": "tissue uptake at 1 h", "setting": "[2]; stomach uptake", "value": "1.6 ± 0.5", "unit": "%ID/g"}]}]}
